Data from article PMC6303401, “A NAC transcription factor, NOR-like1, is a new positive regulator of tomato fruit ripening”.

B1: SlGgpps2 wild (dsDNA)
DNA 1: TACGTTTAGGATAGGACTTCATTACGTGTCAAGGACAAAAATAAACCTAT
DNA 2: ATAGGTTTATTTTTGTCCTTGACACGTAATGAAGTCCTATCCTAAACGTA
B2: SlSGR1 wild (dsDNA)
DNA 1: TAAGCAGTTATGCGTGTGCTGAAGTTGTTATTTCAAACGTGAAAAGGAAA
DNA 2: TTTCCTTTTCACGTTTGAAATAACAACTTCAGCACACGCATAACTGCTTA
B3: SlCEL2 wild (dsDNA)
DNA 1: ATCCAATAGCATCCCACCACGTGTCGTAACAATATTGGTTTAACCCCAGG
DNA 2: CCTGGGGTTAAACCAATATTGTTACGACACGTGGTGGGATGCTATTGGAT
B4: SlPG2a wild (dsDNA)
DNA 1: TATTTTAAAAAATACACTTAAAAGCGTGACTAAATATAAATTGTTGCTCA
DNA 2: TGAGCAACAATTTATATTTAGTCACGCTTTTAAGTGTATTTTTTAAAATA
B5: SlEXP1 wild (dsDNA)
DNA 1: CTGAAATTTTAGCTAATTTTAACACGTATTCAATTTTGTATGATTGAATG
DNA 2: CATTCAATCATACAAAATTGAATACGTGTTAAAATTAGCTAAAATTTCAG
B6: SlACS4 wild (dsDNA)
DNA 1: GTTTTAACTTTTTAAATATTTTGACGTAAGTTTTTTGTTTTCCCCCAAAA
DNA 2: TTTTGGGGGAAAACAAAAAACTTACGTCAAAATATTTAAAAAGTTAAAAC
B7: SlPL wild (dsDNA)
DNA 1: TATCAATAACAGATAGTAATTTTACGTAATGATATTGAACGATGTATATA
DNA 2: TATATACATCGTTCAATATCATTACGTAAAATTACTATCTGTTATTGATA
B8: SlACS2 wild (dsDNA)
DNA 1: AATAAATTCTTTTTGACAGGGTGGCGTAAAAATAATTTTATTTTAAAATA
DNA 2: TATTTTAAAATAAAATTATTTTTACGCCACCCTGTCAAAAAGAATTTATT

The binders below were run against NOR-like1 (Solanum lycopersicum (cv. AC), UniProt K4CH25 1-329) (assay: EMSA; EMSA kit (Thermo Fisher), manufacturer's instructions; buffer, salt, pH and temperature not stated). Settings: protein: recombinant; tags: GST; chain copies: 2; label: biotin; blunt.
Sequence of NOR-like1 (K4CH25 entry or part of it): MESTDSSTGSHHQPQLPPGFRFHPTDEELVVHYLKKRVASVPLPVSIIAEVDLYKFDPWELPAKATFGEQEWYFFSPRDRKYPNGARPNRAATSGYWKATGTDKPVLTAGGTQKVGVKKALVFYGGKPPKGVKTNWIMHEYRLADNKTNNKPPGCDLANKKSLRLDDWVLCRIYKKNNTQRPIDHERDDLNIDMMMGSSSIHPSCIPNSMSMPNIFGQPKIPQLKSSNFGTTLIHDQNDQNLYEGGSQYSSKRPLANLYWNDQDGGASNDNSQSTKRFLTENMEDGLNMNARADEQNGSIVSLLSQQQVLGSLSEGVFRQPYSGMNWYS

Question: Does B1 bind?
Answer: Result: binds

Question: Does B2 bind?
Answer: Result: binds

Question: Does B3 bind?
Answer: Result: binds

Question: Does B4 bind?
Answer: Result: binds

Question: Does B5 bind?
Answer: Result: binds

Question: Does B6 bind?
Answer: Result: binds

Question: Does B7 bind?
Answer: Result: binds

Question: Does B8 bind?
Answer: Result: binds
